Results reported in US20090181009A1 (ARCA BIOPHARMA, published 2009).

T1: human NTB-A (full-length, on cells) (human, UniProt Q96DU3 22-332)
T1 sequence: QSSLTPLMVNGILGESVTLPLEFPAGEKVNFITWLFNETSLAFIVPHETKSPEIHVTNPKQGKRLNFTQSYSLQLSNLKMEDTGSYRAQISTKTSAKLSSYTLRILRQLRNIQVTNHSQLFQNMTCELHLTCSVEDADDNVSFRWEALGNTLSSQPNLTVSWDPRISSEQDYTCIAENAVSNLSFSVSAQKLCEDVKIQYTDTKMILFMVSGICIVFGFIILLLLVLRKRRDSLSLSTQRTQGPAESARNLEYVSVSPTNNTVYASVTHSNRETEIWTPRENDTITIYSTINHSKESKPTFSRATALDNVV

T2: NTB-A Δ5 deletion construct (human, UniProt Q96DU3 22-64)
T2 construct: Expressed in 293 cells and read by flow cytometry
T2 chain: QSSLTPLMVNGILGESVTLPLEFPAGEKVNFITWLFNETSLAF

T3: NTB-A Δ4 deletion construct (human, UniProt Q96DU3 22-94)
T3 construct: Expressed in 293 cells and read by flow cytometry
T3 sequence: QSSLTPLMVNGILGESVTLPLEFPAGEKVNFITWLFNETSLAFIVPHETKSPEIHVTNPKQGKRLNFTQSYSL

T4: NTB-A extracellular domain fused to a C-terminal tag of V5-His (NTB-A-ECD-V5His) (human)
T4 construct: Produced in HEK-293 cells; also called recombinant NTB-A protein; NTB-A V5-6His
T4 chain: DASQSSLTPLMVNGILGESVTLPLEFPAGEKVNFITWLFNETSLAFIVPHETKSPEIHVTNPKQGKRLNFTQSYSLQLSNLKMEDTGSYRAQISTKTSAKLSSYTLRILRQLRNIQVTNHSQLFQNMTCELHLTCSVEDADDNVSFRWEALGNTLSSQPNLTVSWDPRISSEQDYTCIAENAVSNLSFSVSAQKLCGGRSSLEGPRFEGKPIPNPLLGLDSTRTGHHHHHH

B1: anti-NTB-A monoclonal antibody 994.1 (antibody, mouse IgG2b, V domains shown)
VH: QIQLVQSGPDLKNPGKTVKISCKASGYTFTNFGMNWVKQSPERGLKWMGWINTYNGKPTYADDFKGQFAFSLETSATTAYLQINNLKNEDTAAYFCAKRGGTVDFGYWGQGTTLTVSS
VL: EVVLTQSPTTMAASPGEKITVTCSASSPISSNFLHWYQQKPGFSPKLFIYRTSILASGVPARFSGSGSGTSFSLTIGAMEAEDVAAYYCQQGIYMPLTFGAGTKLELKR
notes: Murine IgG2b from a hybridoma; also called ATCC Deposit No. PTA-7831
B2: anti-NTB-A monoclonal antibody 480.12 (antibody, mouse IgG2b, V domains shown)
VH: QIQLVQSGPELKKPGETVKISCKASGYTFTNFGMNWVKQAPGKGLKWMGWINTYSGEATYADDFKGRFAFSLETSASTAFLQISNLKNEDTATYFCARRGGTAEFDYWGQGTPLTVSSA
VL: EIVLTQSPTTVAASPGEKITITCSASSSISSNFLHWYQQKPGFSPKLLIYRTSKLASGVPGRFSGSGSGTSYSLTIGTMEAEDVATYYCQQGIYMPLTVGAGTKLELKRA
notes: Murine IgG2b from a hybridoma; also called ATCC Deposit No. PTA-7832

Assays:
[1] = biological target: T1, human NTB-A (full-length, on cells); test: cell-based or functional assay
[2] = biological target: T2, NTB-A Δ5 deletion construct; test: flow cytometry on 293 cells expressing the deletion construct
[3] = biological target: T3, NTB-A Δ4 deletion construct; test: as above
[4] = biological target: T4, NTB-A extracellular domain fused to a …; test: SPR (BIAcore), mAb captured by anti-mouse mAb, antigen in solution, 25° C.
Protocol: (§1) Kinetic rate constants (kₐ and kd) were determined using surface plasmon resonance and affinities (KD) were then calculated from the rate constants (kd/kₐ). Surface plasmon resonance was carried out on a BIAcore system (Biacore International AB, Uppsala, Sweden). […] Antigen was diluted to a starting concentration of 46 nM and tested for binding to the mAb samples using a 3-fold dilution series. Each of 5 concentrations was tested twice except the highest concentration which was tested 5 times in total, two times with a short dissociation of 300 seconds followed by three times with a dissociation of 60 minutes. The data sets from the long dissociation experiments were globally fit with the shorter […] experiments to determine binding constants for the interactions. The analysis was carried out in HBS, pH 7.4 buffer at 25° C. (Canziani et al, Anal. Biochem. 352:301-307 […]).

[5] = biological target: T4, NTB-A extracellular domain fused to a …; test: SPR (BIAcore), mAb captured by anti-mouse mAb, antigen in solution, 25° C.; KD = kd/ka
Protocol: as §1

Binder	EC50 of complement-dependent cytotoxicity (CDC) on CA46 cells [1] [ng/mL]	binding result [2]	binding result [3]	EC50 of CDC on cells from CLL patients [1] [ng/mL]	koff [4] [s⁻¹]	kon [4] [M⁻¹ s⁻¹]	Kd [5] [nM]
B1	~10	no binding	no binding				
B2		no binding	no binding	9 to 15	0.0005	404000	1.25
